The values below come from patent publication US20240409624A1 (UCB, published 2024).

For assay [1], the target named is T1, 0N4 R tau P301 mutated to alanine (human, UniProt P10636 1-758).
T1 construct: also called P301A
Briefly: flow cytometry on fixed, permeabilised Expi293 cells expressing the mutant, 10 µg/ml VR7082. On the procedure:
(§1) Upon receipt of the constructs, single constructs were transiently transfected into Expi293 cells (Thermo-Fisher) according to the instructions from the manufacturer. The cells were incubated at 38° C., shaking at 220 RPM, in a humidified 5% CO2 environment. Following a 48 hour incubation, the cells were harvested via centrifugation at 350 G(av) for 10 minutes. The cells were fixed and permeabilized with Invitrogens Fix and Perm kit, according to the instructions from the manufacturers. […] The cells were incubated on ice for 30 minutes before being washed in PBS+1% BSA and resuspended in 50 μl/well.
(§2) The cells were run on an IQue3 and tau containing cells were gated via the alexa-488 fluorescence from HT7 and tau binding assessed via alexa-647 staining. The data was normalised and expressed as a percentage of the binding signal observed for not-mutated tau.

The target in assay [2] is T2, 0N4 R tau G302 mutated to alanine (human, UniProt P10636 1-758).
T2 construct: also called G302A
Described as above. On the procedure: as §1, §2

For assay [3], the target named is T3, 0N3 R tau (human, UniProt P10636-2 1-352).
T3 construct: Used as recombinant protein (ELISA), overexpressed in cells (flow cytometry, Western blot, immunofluorescence) and native in iPSC derived neurons; also called 3 R tau (iPSC derived neurons express 0N3 R tau)
The assay can be described thus: ELISA, antibody titrated about 3 to 10000 ng/ml on tau isoform coated directly onto the plate, OD 630 nm.

For assay [4], the target named is T4, 1N3 R tau (human, UniProt P10636-4 1-381).
T4 construct: One of the six recombinantly expressed tau isoforms
The description is as above.

For assay [5], the target named is T5, 2N3 R tau (human, UniProt P10636-5 1-410).
T5 construct: One of the six recombinantly expressed tau isoforms
The assay is described as above.

Assay [6] addresses T6, 1N4 R tau (human, UniProt P10636-7 1-412).
T6 construct: One of the six recombinantly expressed tau isoforms
The description is as above.

For assay [7], the target named is T7, 2N4 R tau (human, UniProt P10636 2-758).
T7 construct: also called largest human isoform of tau
Described as above.

The target in assay [8] is T3, 0N3 R tau. The assay can be described thus: Western blot of lysates of cells overexpressing a single tau isoform, probed with the mouse IgG format.
Assay [9] deals with T4, 1N3 R tau. The assay is described as above.
In assay [10] the target is T5, 2N3 R tau. The description is as above.
Assay [11] addresses T6, 1N4 R tau. The description is as above.
Assay [12] has as its target T7, 2N4 R tau. The description is as above.
Assay [13] addresses T7, 2N4 R tau. The assay can be described thus: ELISA, antibody titrated about 3 to 10000 ng/ml on tau isoform coated directly onto the plate, OD 630 nm. The source holds these as a separate data set.
The target in assay [14] is T3, 0N3 R tau. Briefly: flow cytometry, antibody titrated about 3 to 10000 ng/ml on cells with intracellularly expressed tau isoform, geomean AF647 of transfected cells.
Assay [15] concerns the target T4, 1N3 R tau. Described as above.
For assay [16], the target named is T5, 2N3 R tau. The assay is described as above.
In assay [17] the target is T6, 1N4 R tau. Described as above.
For assay [18], the target named is T6, 1N4 R tau. The assay can be described thus: Western blot of lysates of cells overexpressing a single tau isoform, probed with the mouse IgG format. This is another data set of the same source.
The target of assay [19] is T7, 2N4 R tau. Described as above. The source holds these as a separate data set.
The target of assay [20] is T3, 0N3 R tau. Briefly: ELISA, scFv-Ms-Fc titrated about 3 to 10000 ng/ml on coated tau isoform, OD 630 nm.
The target of assay [21] is T4, 1N3 R tau. The assay is described as above.
In assay [22] the target is T5, 2N3 R tau. The description is as above.
Another assay addresses T8, 0N4 R tau (human, UniProt P10636-6 1-383).
T8 construct: Used as recombinant protein (ELISA), overexpressed in cells and native in 10+16 MAPT mutant iPSC derived neurons; also called unmutated 0N4 R tau; 4 R tau (10+16 MAPT mutant neurons express 0N4 R tau)
Briefly: flow cytometry, scFv-Ms-Fc titrated about 3 to 10000 ng/ml on cells transfected with the tau isoform, mean fluorescence of transfected cells.

The target of assay [23] is T6, 1N4 R tau. Described as above.
For assay [24], the target named is T7, 2N4 R tau. Described as above.

T5 sequence (P10636 other isoform, or with tags, fused parts or gaps limits assumed): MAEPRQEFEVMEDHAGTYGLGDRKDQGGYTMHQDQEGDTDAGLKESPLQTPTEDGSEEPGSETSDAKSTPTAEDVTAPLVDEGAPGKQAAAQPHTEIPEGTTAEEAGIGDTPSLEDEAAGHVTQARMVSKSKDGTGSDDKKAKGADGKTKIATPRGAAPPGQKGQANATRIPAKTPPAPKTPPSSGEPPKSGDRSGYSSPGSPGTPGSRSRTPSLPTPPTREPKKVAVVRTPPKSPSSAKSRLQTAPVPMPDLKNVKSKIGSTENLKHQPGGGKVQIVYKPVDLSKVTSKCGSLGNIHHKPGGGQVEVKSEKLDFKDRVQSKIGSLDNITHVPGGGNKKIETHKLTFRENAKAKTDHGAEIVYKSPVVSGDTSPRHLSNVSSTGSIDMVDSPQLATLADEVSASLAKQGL
T4 sequence (P10636 other isoform, or with tags, fused parts or gaps limits assumed): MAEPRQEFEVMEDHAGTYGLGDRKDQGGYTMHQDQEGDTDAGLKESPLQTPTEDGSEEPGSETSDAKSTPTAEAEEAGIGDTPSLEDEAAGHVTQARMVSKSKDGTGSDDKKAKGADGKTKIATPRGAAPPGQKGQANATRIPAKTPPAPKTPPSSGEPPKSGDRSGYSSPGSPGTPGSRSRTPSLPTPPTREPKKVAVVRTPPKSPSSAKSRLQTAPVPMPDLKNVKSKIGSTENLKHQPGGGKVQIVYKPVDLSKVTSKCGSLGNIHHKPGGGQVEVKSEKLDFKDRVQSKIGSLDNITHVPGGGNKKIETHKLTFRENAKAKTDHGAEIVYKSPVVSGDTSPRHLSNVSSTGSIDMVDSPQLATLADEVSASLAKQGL
T6 sequence (P10636 other isoform, or with tags, fused parts or gaps limits assumed): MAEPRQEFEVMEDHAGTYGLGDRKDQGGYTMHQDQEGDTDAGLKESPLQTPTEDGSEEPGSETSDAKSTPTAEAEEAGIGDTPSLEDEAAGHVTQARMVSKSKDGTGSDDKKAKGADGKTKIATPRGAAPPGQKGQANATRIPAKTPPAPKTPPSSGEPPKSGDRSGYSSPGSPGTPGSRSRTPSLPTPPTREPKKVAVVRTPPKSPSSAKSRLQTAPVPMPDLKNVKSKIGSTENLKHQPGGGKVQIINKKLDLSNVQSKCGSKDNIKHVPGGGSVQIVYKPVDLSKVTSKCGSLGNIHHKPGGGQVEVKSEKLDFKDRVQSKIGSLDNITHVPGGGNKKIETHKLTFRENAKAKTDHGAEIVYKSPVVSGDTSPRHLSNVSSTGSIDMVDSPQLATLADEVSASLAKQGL
T3 sequence (P10636 other isoform, or with tags, fused parts or gaps limits assumed): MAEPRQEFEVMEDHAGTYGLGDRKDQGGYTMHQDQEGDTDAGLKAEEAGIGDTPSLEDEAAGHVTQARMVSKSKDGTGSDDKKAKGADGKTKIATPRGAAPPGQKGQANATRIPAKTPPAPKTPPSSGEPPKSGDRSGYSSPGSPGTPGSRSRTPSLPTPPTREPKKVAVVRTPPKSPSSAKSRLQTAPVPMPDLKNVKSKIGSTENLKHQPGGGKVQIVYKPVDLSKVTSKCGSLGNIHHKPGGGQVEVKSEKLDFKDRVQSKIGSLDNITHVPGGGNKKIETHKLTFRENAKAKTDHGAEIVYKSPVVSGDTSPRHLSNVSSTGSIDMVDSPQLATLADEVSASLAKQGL
T7 sequence (P10636 other isoform, or with tags, fused parts or gaps limits assumed): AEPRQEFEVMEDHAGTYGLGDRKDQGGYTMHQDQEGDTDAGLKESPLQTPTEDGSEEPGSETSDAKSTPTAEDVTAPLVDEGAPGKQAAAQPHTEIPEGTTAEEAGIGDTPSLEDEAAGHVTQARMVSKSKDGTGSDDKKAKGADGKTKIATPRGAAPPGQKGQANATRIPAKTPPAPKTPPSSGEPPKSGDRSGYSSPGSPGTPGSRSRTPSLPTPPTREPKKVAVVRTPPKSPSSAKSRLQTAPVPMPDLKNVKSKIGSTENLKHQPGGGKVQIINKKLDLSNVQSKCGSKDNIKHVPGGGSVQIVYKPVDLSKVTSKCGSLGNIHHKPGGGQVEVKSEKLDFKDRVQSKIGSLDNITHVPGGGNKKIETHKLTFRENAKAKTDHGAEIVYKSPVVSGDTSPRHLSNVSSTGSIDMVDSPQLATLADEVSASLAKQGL
T8 sequence (P10636 other isoform, or with tags, fused parts or gaps limits assumed, form in doubt): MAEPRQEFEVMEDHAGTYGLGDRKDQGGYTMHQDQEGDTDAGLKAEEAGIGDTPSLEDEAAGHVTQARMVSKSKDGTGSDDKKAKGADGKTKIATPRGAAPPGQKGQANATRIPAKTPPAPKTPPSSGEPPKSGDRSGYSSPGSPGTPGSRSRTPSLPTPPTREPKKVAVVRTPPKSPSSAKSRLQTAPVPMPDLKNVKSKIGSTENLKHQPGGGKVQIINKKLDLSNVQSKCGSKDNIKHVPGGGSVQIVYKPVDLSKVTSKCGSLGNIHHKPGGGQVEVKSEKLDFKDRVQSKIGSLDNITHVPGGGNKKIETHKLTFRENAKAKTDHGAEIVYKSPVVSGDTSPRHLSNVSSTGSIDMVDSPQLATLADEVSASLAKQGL
T2 sequence (P10636 other isoform, or with tags, fused parts or gaps limits assumed, stated change not applied): as the sequence (P10636 other isoform, or with tags, fused parts or gaps limits assumed, form in doubt) above, with G244A counted along it
T1 sequence (P10636 other isoform, or with tags, fused parts or gaps limits assumed, stated change not applied): as the sequence (P10636 other isoform, or with tags, fused parts or gaps limits assumed, form in doubt) above, with P243A counted along it

B1: VR7082 rabbit IgG (antibody, V domains shown)
VH: QSVEESGGRLVTPGTPLTLTCTVSGIDLSNYAMIWVRQAPGEGLEYIGIISSTGNTFYATWAKGRFTISKTSTTVDLKITSPTAEDTATYFCARDTNSDSHYGWEAFNIWGPGTLVTVSS
VL: AVVLTQTPASVEAAVGGTVSINCQASEDIESYLAWYQQKPGQRPKLLIYRASTLASGVSSRFKGSGSGTEYTLTISGVECADAATYYCQEGYSIHVDNVFGGGTEVVVK
notes: Cloned and tested as full-length rabbit IgG (kappa light chain); also called clone 3; VR7082-RbIgG
As for B1, the binding result in assay [1] is given as “binds”; in assay [2], “binds”; with 0N3 R tau [3], “no binding (tested: 10000 ng/ml)”; with 1N3 R tau [4], “no binding (tested: 10000 ng/ml)”; in the assay with 2N3 R tau [5], “no binding (tested: 10000 ng/ml)”; with 1N4 R tau [6], “binds”. The binding result in the assay with 2N4 R tau [7] is “binds”.

B2: VR7082 formatted as Mouse IgG (antibody, V domains shown)
VH: QSVEESGGRLVTPGTPLTLTCTVSGIDLSNYAMIWVRQAPGEGLEYIGIISSTGNTFYATWAKGRFTISKTSTTVDLKITSPTAEDTATYFCARDTNSDSHYGWEAFNIWGPGTLVTVSS
VL: AVVLTQTPASVEAAVGGTVSINCQASEDIESYLAWYQQKPGQRPKLLIYRASTLASGVSSRFKGSGSGTEYTLTISGVECADAATYYCQEGYSIHVDNVFGGGTEVVVK
notes: also called VR7082 mouse chimeric antibody
B2: the binding result is “no binding” in the assay with 0N3 R tau [8]; “no binding” in the assay with 1N3 R tau [9]; “no binding” with 2N3 R tau [10]; “binds” in the assay with 1N4 R tau [11]; “binds” with 2N4 R tau [12].

B3: VR7081 rabbit IgG (antibody, V domains shown)
VH: QSLEESGGRLVTPGTPLTLTCTVSGFSLSNYAMIWVRQAPGGGLEWIGTMGTNGRTYYASWAKGRFTISKTSTTMDLSMTSLTAEDTATYFCARDAGITYSTYYFNIWGPGTLVTVSS
VL: AQVLTQTPASVSAAVGGTVSISCQSSPSVLNTNDLSWFQQKPGQPPKVLIYGASTLASGVPSRFKGSGSGTQFTLTISDVQCDDAATYYCAGGYDVNIDIYGFGGGTEVVVK
notes: Cloned and tested as full-length rabbit IgG (kappa light chain); also called clone 14; 3 R-specific antibody
On to B3, for which the binding result with 2N4 R tau [13] and in the assay with 1N4 R tau [17] was “no binding (tested: 10000 ng/ml)” in each case. Further, the “EC50 (read off the curve)” value with 0N3 R tau [14] was approximately 0.7 µg/mL; with 1N3 R tau [15] it was approximately 1 µg/mL; with 2N3 R tau [16] it was approximately 0.9 µg/mL.

B4: VR7081 formatted as Mouse IgG (antibody, V domains shown)
VH: QSLEESGGRLVTPGTPLTLTCTVSGFSLSNYAMIWVRQAPGGGLEWIGTMGTNGRTYYASWAKGRFTISKTSTTMDLSMTSLTAEDTATYFCARDAGITYSTYYFNIWGPGTLVTVSS
VL: AQVLTQTPASVSAAVGGTVSISCQSSPSVLNTNDLSWFQQKPGQPPKVLIYGASTLASGVPSRFKGSGSGTQFTLTISDVQCDDAATYYCAGGYDVNIDIYGFGGGTEVVVK
notes: also called VR7081 mouse chimeric antibody
On to B4, for which the binding result with 1N4 R tau [18] and in the assay with 2N4 R tau [19] was “no binding” throughout.

B5: VR7082 scFv-Ms-Fc (Fc fusion)
scFv: MAQSVEESGGRLVTPGTPLTLTCTVSGIDLSNYAMIWVRQAPGEGLEYIGIISSTGNTFYATWAKGRFTISKTSTTVDLKITSPTAEDTATYFCARDTNSDSHYGWEAFNIWGPGTLVTVSSGGGGSGGGGSGGGGSGGGGSAVVLTQTPASVEAAVGGTVSINCQASEDIESYLAWYQQKPGQRPKLLIYRASTLASGVSSRFKGSGSGTEYTLTISGVECADAATYYCQEGYSIHVDNVFGGGTEVVVK
notes: also called scFv mouse Fc conversion of VR7082; not shown: mouse Fc
B5: the binding result in the assay with 0N3 R tau [20], with 1N3 R tau [21] and with 2N3 R tau [22] was “no binding (tested: 10000 ng/ml)” in each case. Also, the “EC50 (read off the curve)” value with 0N4 R tau was approximately 0.6 µg/mL; in the assay with 1N4 R tau [23], approximately 0.8 µg/mL; with 2N4 R tau [24], approximately 0.9 µg/mL.
